Laboratory results taken from patent US20110263454A1, “Methods of Identifying Functional Characteristics of Promoters, Transcription Modifying Proteins and Transcription Modulating Agents” (Salk Institute for Biological Studies, priority 2008, published 2011).

B1: RARb: Retinoic acid receptor β (NR1B2), nuclear hormone receptor cDNA driver (protein, UniProt P10826 1-455, looked up)
Retinoic acid receptor beta: MTTSGHACPVPAVNGHMTHYPATPYPLLFPPVIGGLSLPPLHGLHGHPPPSGCSTPSPATIETQSTSSEELVPSPPSPLPPPRVYKPCFVCQDKSSGYHYGVSACEGCKGFFRRSIQKNMIYTCHRDKNCVINKVTRNRCQYCRLQKCFEVGMSKESVRNDRNKKKKETSKQECTESYEMTAELDDLTEKIRKAHQETFPSLCQLGKYTTNSSADHRVRLDLGLWDKFSELATKCIIKIVEFAKRLPGFTGLTIADQITLLKAACLDILILRICTRYTPEQDTMTFSDGLTLNRTQMHNAGFGPLTDLVFTFANQLLPLEMDDTETGLLSAICLICGDRQDLEEPTKVDKLQEPLLEALKIYIRKRRPSKPHMFPKILMKITDLRSISAKGAERVITLKMEIPGSMPPLIQEMLENSEGHEPLTPSSSGNTAEHSPSISPSSVENSGVSQSPLVQ
B2: RVRb: Rev-Erb β (NR1D2, alternative name RVR), cDNA driver (protein, UniProt Q14995 1-579, looked up)
Nuclear receptor subfamily 1 …: MEVNAGGVIAYISSSSSASSPASCHSEGSENSFQSSSSSVPSSPNSSNSDTNGNPKNGDLANIEGILKNDRIDCSMKTSKSSAPGMTKSHSGVTKFSGMVLLCKVCGDVASGFHYGVHACEGCKGFFRRSIQQNIQYKKCLKNENCSIMRMNRNRCQQCRFKKCLSVGMSRDAVRFGRIPKREKQRMLIEMQSAMKTMMNSQFSGHLQNDTLVEHHEQTALPAQEQLRPKPQLEQENIKSSSPPSSDFAKEEVIGMVTRAHKDTFMYNQEQQENSAESMQPQRGERIPKNMEQYNLNHDHCGNGLSSHFPCSESQQHLNGQFKGRNIMHYPNGHAICIANGHCMNFSNAYTQRVCDRVPIDGFSQNENKNSYLCNTGGRMHLVCPMSKSPYVDPHKSGHEIWEEFSMSFTPAVKEVVEFAKRIPGFRDLSQHDQVNLLKAGTFEVLMVRFASLFDAKERTVTFLSGKKYSVDDLHSMGAGDLLNSMFEFSEKLNALQLSDEEMSLFTAVVLVSADRSGIENVNSVEALQETLIRALRTLIMKNHPNEASIFTKLLLKLPDLRSLNNMHSEELLAFKVHP
B3: RARa: Retinoic acid receptor α (NR1B1), nuclear hormone receptor cDNA driver (protein, UniProt P10276 1-462, looked up)
Retinoic acid receptor alpha: MASNSSSCPTPGGGHLNGYPVPPYAFFFPPMLGGLSPPGALTTLQHQLPVSGYSTPSPATIETQSSSSEEIVPSPPSPPPLPRIYKPCFVCQDKSSGYHYGVSACEGCKGFFRRSIQKNMVYTCHRDKNCIINKVTRNRCQYCRLQKCFEVGMSKESVRNDRNKKKKEVPKPECSESYTLTPEVGELIEKVRKAHQETFPALCQLGKYTTNNSSEQRVSLDIDLWDKFSELSTKCIIKTVEFAKQLPGFTTLTIADQITLLKAACLDILILRICTRYTPEQDTMTFSDGLTLNRTQMHNAGFGPLTDLVFAFANQLLPLEMDDAETGLLSAICLICGDRQDLEQPDRVDMLQEPLLEALKVYVRKRRPSRPHMFPKMLMKITDLRSISAKGAERVITLKMEIPGSMPPLIQEMLENSEGLDTLSGQPGGGGRDGGGLAPPPGSCSPSLSPSSNRSSPATHSP
B4: RVRa: Rev-Erb α (NR1D1), cDNA driver (protein, UniProt P20393 1-614, looked up)
Nuclear receptor subfamily 1 …: MTTLDSNNNTGGVITYIGSSGSSPSRTSPESLYSDNSNGSFQSLTQGCPTYFPPSPTGSLTQDPARSFGSIPPSLSDDGSPSSSSSSSSSSSSFYNGSPPGSLQVAMEDSSRVSPSKSTSNITKLNGMVLLCKVCGDVASGFHYGVHACEGCKGFFRRSIQQNIQYKRCLKNENCSIVRINRNRCQQCRFKKCLSVGMSRDAVRFGRIPKREKQRMLAEMQSAMNLANNQLSSQCPLETSPTQHPTPGPMGPSPPPAPVPSPLVGFSQFPQQLTPPRSPSPEPTVEDVISQVARAHREIFTYAHDKLGSSPGNFNANHASGSPPATTPHRWENQGCPPAPNDNNTLAAQRHNEALNGLRQAPSSYPPTWPPGPAHHSCHQSNSNGHRLCPTHVYAAPEGKAPANSPRQGNSKNVLLACPMNMYPHGRSGRTVQEIWEDFSMSFTPAVREVVEFAKHIPGFRDLSQHDQVTLLKAGTFEVLMVRFASLFNVKDQTVMFLSRTTYSLQELGAMGMGDLLSAMFDFSEKLNSLALTEEELGLFTAVVLVSADRSGMENSASVEQLQETLLRALRALVLKNRPLETSRFTKLLLKLPDLRTLNNMHSEKLLSFRVDAQ

Key:
hMyoD promoter = test: NHR-promoter luciferase screen, hMyoD promoter; assay type: cell-based, human; settings: for Luc. act., normalized to lacZ / Normalized Luc. act., normalized to control: MyoD promoter reporter, co-transfected HR, without or with its ligand; for Normalized Luc. act., normalized to control: relative to control; for luciferase activity normalized to lacZ activity and to a control, hMyoD: hMyoD promoter-luciferase, CV-1 cells, NHR +/- ligand, control = 1.00
Method: (§1) The use, feasibility, and reproducibility of the functional NHR-promoter screen in a 48-well format have been tested validated. Briefly, there were co-expressed 50 ng of each NHR/NHR homodimer or NHR/RXR heterodimer with 100 ng promoter/luciferase construct and 50 ng of LacZ (as a control for transfection efficiency) in CV-1 cells using Fugene HD (Roche) as a transfection reagent (alternatively or additionally, a CMV-YFP construct can be used as a transfection control). Each of the nuclear hormone receptors that were used in these experiments was cloned into a pcDNA3.1 vector and comprised a C-terminally linked V5H6 tag. Twenty-four hours after transfection, appropriate ligands were added, where applicable, (see Table 5 for various ligands and concentrations and after 48 hrs, samples were assayed for luciferase and LacZ activity. To measure for luciferase activity 15 ul of sample was added to 30 ul of luciferase buffer (20 mM tricine, 1.07 mM MgCarbonate, 2.67 mM MgSulfate, 0.1 mM Naz-EDTA, 5 mM DTT, 5 mM ATP, 0.15 mg/ml CoA, 0.5 mM Luciferin), mixed briefly, and run in a Perkin Elmer Victor 5 luminometer. Thus, the functional NHR-promoter screen was used to observe the transcriptional activity of 29 promoters from various physiological pathways including inflammation, lipid and sugar metabolism, cholesterol transport, xenobiotic metabolism, and circadian rhythm.
(§2) The promoters that facilitate transcription of the indicated gene products that were tested using the protocols described herein are listed in the first row of the table. The nuclear hormone receptors and, where applicable, ligands that were assayed for their transcriptional effects on the promoters are listed in the first column of the table. The data represent the luciferase activity of each sample normalized to both the lacZ activity of that sample and to a control, e.g., no NHR or ligand, as customary in the art. As described previously, these normalizations allow the transcriptional activity of each reporter cell to be compared to other samples.
(§3) Tables 7-40 show the transcriptional effects of the hormone receptors, and, where applicable, ligands (orphan receptors are screened without ligand), on each individual promoter. […] The control data of each table are shown in their last rows.

hTNFa promoter = test: NHR-promoter luciferase screen, hTNFa promoter; assay type: cell-based, human; settings: for Luc. act., normalized to lacZ / Normalized Luc. act., normalized to control: TNFa promoter, HR component without or with ligand; for hTNFa promoter reporter activity: transcription factor +/- ligand, control = 1.00
Method: as §1, §2, §3

mUCP1 promoter = test: NHR-promoter luciferase screen, mUCP1 promoter; assay type: cell-based, mouse; settings: for Luc. act., normalized to lacZ / Normalized Luc. act., normalized to control: mUCP1 promoter reporter, co-transfected HR, with or without its ligand; for Normalized Luc. act., normalized to control: relative to control; for luciferase activity normalized to lacZ activity and to a control, mUCP!: mUCP! promoter-luciferase, CV-1 cells, NHR +/- ligand, control = 1.00
Method: as §1, §2, §3

mDio2 promoter = test: NHR-promoter luciferase screen, mDio2 promoter; assay type: cell-based, mouse; settings: for Luc. act., normalized to lacZ / Normalized Luc. act., normalized to control: Dio2, HR component without or with its ligand; for mDio2 promoter reporter activity: transcription factor +/- ligand, control = 1.00
Method: as §1, §2, §3

SREBP1c promoter = test: NHR-promoter luciferase screen, SREBP1c promoter; assay type: cell-based, mouse; settings: for Luc. act., normalized to lacZ / Normalized Luc. act., normalized to control: SREBP1c promoter, HR component without or with ligand; for mSREBP1-c promoter reporter activity: transcription factor +/- ligand, control = 1.00
Method: as §1, §2, §3

hPOMC promoter = test: NHR-promoter luciferase screen, hPOMC promoter; assay type: cell-based, human; settings: for Luc. act., normalized to lacZ / Normalized Luc. act., normalized to control: hPOMC promoter, HR/ligand component; for hPOMC promoter reporter activity: transcription factor +/- ligand, control = 1.00
Method: as §1, §2, §3

Row | Molecule | Luc. act., normalized to lacZ (hMyoD promoter) | Normalized Luc. act., normalized to control (hMyoD promoter) | luciferase activity normalized to lacZ activity and to a control, hMyoD (hMyoD promoter) | Luc. act., normalized to lacZ (hTNFa promoter) | Normalized Luc. act., normalized to control (hTNFa promoter) | hTNFa promoter reporter activity (hTNFa promoter) | Luc. act., normalized to lacZ (mUCP1 promoter) | Normalized Luc. act., normalized to control (mUCP1 promoter) | luciferase activity normalized to lacZ activity and to a control, mUCP! (mUCP1 promoter) | Luc. act., normalized to lacZ (mDio2 promoter) | Normalized Luc. act., normalized to control (mDio2 promoter) | mDio2 promoter reporter activity (mDio2 promoter) | Luc. act., normalized to lacZ (SREBP1c promoter) | Normalized Luc. act., normalized to control (SREBP1c promoter) | mSREBP1-c promoter reporter activity (SREBP1c promoter) | Luc. act., normalized to lacZ (hPOMC promoter) | Normalized Luc. act., normalized to control (hPOMC promoter) | hPOMC promoter reporter activity (hPOMC promoter)
1 | B1 | 123.5 | 1.9 | 1.95 | 1854.5 | 1.9 | 1.89 | 4.4 | 1.0 | 1.00 | 32.7 | 2.1 | 2.08 | 1056.4 | 3.3 | 3.28 | 4.3 | 1.0 | 1.00
2 | B2 | 80.9 | 1.3 | 1.28 | 1017.6 | 1.0 | 1.04 | 4.3 | 1.0 | 0.96 | 19.7 | 1.3 | 1.26 | 721.7 | 2.2 | 2.24 | 2.8 | 0.7 | 0.66
3 | B3 | 99.3 | 1.6 | 1.57 | 1363.2 | 1.4 | 1.39 | 2.8 | 0.6 | 0.63 | 40.3 | 2.6 | 2.56 | 854.2 | 2.7 | 2.65 | 3.2 | 0.7 | 0.74
4 | B4 | 75.0 | 1.2 | 1.18 | 1069.4 | 1.1 | 1.09 | 3.8 | 0.8 | 0.85 | 21.5 | 1.4 | 1.37 | 574.4 | 1.8 | 1.78 | 2.3 | 0.5 | 0.53
